T1: human CD73 (huCD73) protein, antigen of the Biacore assay (human, UniProt P21589 27-547, limits assumed)
T1 construct: also called human CD73 antigen
T1 sequence (looked up): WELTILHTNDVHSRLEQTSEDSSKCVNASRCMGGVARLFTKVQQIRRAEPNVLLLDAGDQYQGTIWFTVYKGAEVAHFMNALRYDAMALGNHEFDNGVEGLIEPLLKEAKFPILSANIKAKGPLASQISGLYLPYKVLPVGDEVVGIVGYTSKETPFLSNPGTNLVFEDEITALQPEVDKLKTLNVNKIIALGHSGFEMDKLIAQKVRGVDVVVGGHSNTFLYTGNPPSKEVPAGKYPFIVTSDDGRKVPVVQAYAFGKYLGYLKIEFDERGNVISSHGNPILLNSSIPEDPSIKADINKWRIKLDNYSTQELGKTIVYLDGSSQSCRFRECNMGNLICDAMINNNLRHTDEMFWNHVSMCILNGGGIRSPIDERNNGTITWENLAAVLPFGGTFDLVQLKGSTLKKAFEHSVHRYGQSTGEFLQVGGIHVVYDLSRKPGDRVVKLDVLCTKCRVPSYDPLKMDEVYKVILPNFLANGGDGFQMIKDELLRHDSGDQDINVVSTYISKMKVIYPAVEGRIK

B1: CH108 (antibody, V domains shown)
VH: QVQLKQSGPGLVQPSQSLSITCTVFGFSLKSYGIQWVRQSPGKGLEWLGVIWSGGSADYNAAFISRLSISKDNSKSQVFFKMNSLQGDDTAIYYCAGQYGSVWGQGTSVTVSS
VL: DIQMTQSPSSLSASLGERVSLTCRASQDIGDRLNWLQQEPDGTIKRLIYATSSLDSGVPKRFSGSRSGSDYSLTISSLESEDFVDYYCLQYAGSWTFGGGTKLEIK
notes: also called chimeric antibody of mab108
B2: Hab127.43 (antibody, V domains shown)
VH: EVQLVQSGAEVKKPGASVKVSCKASGYTFTAYFMNWVMQAPGQGLEWIGRIYHNNGDTFYSQKFKGRATLTVDKSTSTVYMELSSLRSEDTAVYYCATSYVGDWGQGTTVTVSS
VL: DIQMTQSPSSLSASVGDRVTITCRASQDIGDSLNWLQQKPGGALKRLIYATSSLDSGVPSRFSGSGSGSDYTLTISSLQPEDFATYYCLQYASFPWTFGGGTKVEIK
notes: VL4 + VH3; recombined with human heavy and light constant regions
B3: Hab127.44 (antibody, V domains shown)
VH: B2 VH with G44S, S84R
VL: B2 VL
notes: VL4 + VH4; recombined with human heavy and light constant regions
B4: Hab108.33 (antibody, V domains shown)
VH: EVTLKESGPVLVKPTETLTLTCTVSGFSLSSYGIQWVRQPPGKLLEWLGVIWSGGSADYNAAFISRLTISKDTSKSQVVLTMTNMDPVDTATYYCAGQYGSVWGQGTLVTVSS
VL: DIQMTQSPSSLSASVGDRVTITCRASQDIGDRLNWLQQKPGGAIKRLIYATSSLDSGVPSRFSGSGSGTEYTLTISSLQPEDFATYYCLQYAGSWTFGGGTKVEIK
notes: VL3 + VH3; full-length antibody
B5: Hab108.25 (antibody, V domains shown)
VH: B4 VH with S30K
VL: B4 VL with G42K
notes: VL2 + VH5; full-length antibody
B6: Hab108.23 (antibody, V domains shown)
VH: B4 VH
VL: B4 VL with G42K
notes: VL2 + VH3; full-length antibody
B7: Hab108.15 (antibody, V domains shown)
VH: B4 VH with S30K
VL: B4 VL with L36Y, G42K, I44P, Y71F
notes: VL1 + VH5; full-length antibody
B8: Hab108.34 (antibody, V domains shown)
VH: B4 VH with E6Q, V10G, L44G
VL: B4 VL
notes: VL3 + VH4; full-length antibody
B9: CH110 (antibody, V domains shown)
VH: QVQLQQSGAELARPGASVQMSCKASGYIFTSYTMHWVKQRPGQGLEWIGYINPNSFYIEYNQKFKDKATLTADTSSSTAYMQLSSLTSEDSAVYYCARGDYDLFYDMDNWGQGTSVTVSS
VL: DIQMTQSPSSLSASLGERVSLTCRASQDIGNSLNWLQQEPDGTIKRLIYATFRLDSGVPKRFSGSRSGSDYSLTISSLESEDFVDYYCQQYASFPWTFGGGTKLEIK
notes: also called chimeric antibody of mab110
B10: CH127 (antibody, V domains shown)
VH: EVQLQQSGPELVKPGESVKISCKASGYSFTAYFMNWVMQSHRKSLEWIGRIYHNNGDTFYSQKFKGKATLTVDKSSNTVHMELRSLTSEDSAVYFCATSYVGDWGQGTTLTVSS
VL: B9 VL with N31D, E39A, I44L, F52S, R53S, K60R, Q89L
notes: also called chimeric antibody of mab127

Changes are numbered by the printed parent chain.

For the assay, the target named is T1, human CD73 (huCD73) protein, antigen of …. Briefly: SPR Biacore T200; antibody captured on Protein A chip, CD73 in flow; 1:1 Langmuir. The source says:
In this experiment, Biacore instrument was used to determine the affinity of the humanized anti-CD73 antibodies to be tested with human CD73 (huCD73) and monkey CD73 (cynoCD73).
A certain amount of test antibody was affinity-captured with Protein A biosensing chip (Cat. #29127556, GE), and then a certain concentration of human or monkey CD73 antigen was allowed to flow through the surface of the chip. The reaction signals were detected in real time with Biacore instrument (Biacore T200, GE) to generate a binding and dissociation curve. At the end of each cycle, after the dissociation was completed, the biosensor chip was washed and regenerated with Glycine-HCl, pH1.5 (Cat. #BR-1003-54, GE). The running buffer for the assay was 1×HBS-EP buffer solution (Cat. #BR-1001-88, GE).
The data obtained from the experiment was fitted against (1:1) Langmuir model using GE Biacore T200 Evaluation version 3.0 software, and the affinity values were obtained, as shown in Table 12 and Table 13 for details.
A general note: In SPR one partner is held on a chip, and binding of the other changes the refractive index at the surface.
For the molecule B1, the equilibrium dissociation constant (Kd) came out at 365 pM, the koff amounted to 5.82e-05 s⁻¹ and the kon stood at 160000 M⁻¹ s⁻¹.
The corresponding values for B2 are 150 pM, 3.58e-05 s⁻¹ and 239000 M⁻¹ s⁻¹.
The corresponding values for B3 are 180 pM, 4.15e-05 s⁻¹ and 230000 M⁻¹ s⁻¹.
For B4, in that order: 481 pM, 0.000123 s⁻¹ and 255000 M⁻¹ s⁻¹.
The molecule B5 came in with a Kd of 349 pM, a koff of 0.000101 s⁻¹ and an on-rate (kon) of 290000 M⁻¹ s⁻¹.
For B6, in that order: 913 pM, 0.000187 s⁻¹ and 205000 M⁻¹ s⁻¹.
For B7, in that order: 485 pM, 0.000121 s⁻¹ and 249000 M⁻¹ s⁻¹.
For B8, in that order: 999 pM, 0.000106 s⁻¹ and 106000 M⁻¹ s⁻¹.
With B9, the affinity, expressed as Kd, was 265 pM; the off-rate (koff) stood at 0.000147 s⁻¹; the kon was 556000 M⁻¹ s⁻¹.
In turn, B10 returned a dissociation constant (Kd) of 139 pM, an off-rate (koff) of 3.31e-05 s⁻¹ and a kon of 239000 M⁻¹ s⁻¹.

The term Kd denotes the free concentration of one partner at which half of the binding sites on the other are occupied at equilibrium, for simple one-to-one binding. The low end stands for higher affinity, the high end for lower affinity. In general, koff refers to the first-order rate constant of dissociation. The low end stands for slow dissociation, the high end for fast dissociation. For orientation: kon means a measure of how fast the partners come together. Read a low kon as slow association.

(Values after patent US20220220218A1 (JIANGSU HENGRUI MEDICINE, published 2022).)
